These results are taken from US20190367620A1 (Merck KGaA, published 2019).

The target of experiment [1] is T1, human FGFR1b-IIIc extracellular domain with a HIS tag (human, UniProt P11362 22-376).
T1 construct: also called huFGFR1b-IIIc; hFGFR1b-IIIc
T1 sequence: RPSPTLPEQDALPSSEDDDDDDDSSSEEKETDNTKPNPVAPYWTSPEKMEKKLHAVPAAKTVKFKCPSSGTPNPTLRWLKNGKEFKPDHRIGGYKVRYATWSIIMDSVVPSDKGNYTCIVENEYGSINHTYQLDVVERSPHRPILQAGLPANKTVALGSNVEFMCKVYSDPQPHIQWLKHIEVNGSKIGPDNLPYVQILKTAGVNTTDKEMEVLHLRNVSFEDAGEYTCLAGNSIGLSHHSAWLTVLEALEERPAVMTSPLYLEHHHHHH
Briefly: ELISA, EC50 from OD450 curves, IgG1 format. As to the method:
(§1) The binding selectivity of the antibodies were tested by ELISA against the different FGFR family members: FGFR1, FGFR2, FGFR3 and FGFR4. Briefly plates were coated overnight with the different His6-tagged FGFR proteins, after blocking with 1% Bovine Serum albumin, 1 or 0.1 μg/ml of anti-FGFR1 antibodies were incubated for 1 h at room temperature. After washing, the bound antibodies were incubated for 1 h at room temperature with a peroxidase affiniPure F(ab′)2 Fragment goat anti-human Fc (Jackson ImmunoResearch Laboratories #109-036-098) and detection was performed using the TMB HRP Substrate solution (BioFx Lab # TMBW-1000-01).
The antibody #A08 both as an IgG1 (bivalent) and as a SEEDbody (monovalent), was affinity matured using the yeast display technology described in (Rhiel et al. 2014) and performing light chain shuffling from immunized OmniRats and naïve human library followed by CDR-H3 parsimonious mutagenesis. Following several sorting rounds, yeast clones were picked, unique clones were reformatted as described in Examples 1.6 and 3.1. The binding affinities of the anti-FGFR1 molecules against human FGFR1b-IIIb) and human FGFR1b-IIIc) were measured by ELISA using a similar protocol as described in Example 1.9. The OD450 was plotted against the antibody concentration and GraphPad Prism software was used to calculate EC₅₀ values (see FIG. 10). […]

The target in experiment [2] is T2, human FGFR1b-IIIb extracellular domain with a HIS tag (human).
T2 construct: also called huFGFR1b-IIIb; hFGFR1b-IIIb
T2 chain: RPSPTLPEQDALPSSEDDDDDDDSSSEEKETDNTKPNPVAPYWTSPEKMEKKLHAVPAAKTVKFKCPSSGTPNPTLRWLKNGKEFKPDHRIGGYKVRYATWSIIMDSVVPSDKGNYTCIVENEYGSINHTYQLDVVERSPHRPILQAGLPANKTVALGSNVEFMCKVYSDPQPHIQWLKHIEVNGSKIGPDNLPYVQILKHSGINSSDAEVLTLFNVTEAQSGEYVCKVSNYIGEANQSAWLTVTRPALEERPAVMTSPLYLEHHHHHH
Briefly: SPR (BIAcore), IgG1 format; target IIIb by paragraph 74 and paragraph 125, the table's title says IIIc. As to the method:
(§2) Binding affinities of anti-FGFR1 antibodies to FGFR1 were measured by Surface Plasmon Resonance (SPR) using a GE Healthcare BIAcore 4000 instrument as follows. Goat anti-human Fc antibody (Jackson ImmunoResearch Laboratories #109-005-098) was first immobilized on BIAcore carboxymethylated dextran CM5 chip using direct coupling to free amino groups following the procedure described by the manufacturer. Antibodies were then captured on the CM5 biosensor chip to achieve approximately 200 response units (RU). Binding measurements were performed using the running HBS-EP+ buffer. A 2-fold dilution series of His-tagged FGFR1 proteins were injected at a flow rate of 30 μl/min at 25° C. Association rates (kₒₙ, per mol/s) and dissociation rates (koff, per s) were calculated using a simple 1:1 Langmuir binding model (Biacore 4000 Evaluation Software). The equilibrium dissociation constant (KD, mol) was calculated as the ratio of koff/kₒₙ.
(§3) The affinities to human FGFR1b-IIIb for the affinity matured clones reformatted as IgG and monovalent SEEDbodies were measured by BIAcore (using a protocol similar to the one described in Example 1.8) and compared to those of mAb #08 (Table 5).
For orientation: In SPR one partner is held on a chip, and binding of the other changes the refractive index at the surface.

The target in experiment [3] is T2, human FGFR1b-IIIb extracellular domain …. Briefly: SPR (BIAcore), SEEDbody format; target IIIb by paragraph 74 and paragraph 125, the table's title says IIIc. As to the method:
as §2, §3

In experiment [4] the target is T1, human FGFR1b-IIIc extracellular domain …. The experiment in a line: ELISA, EC50 from OD450 curves, monovalent SEEDbody format. As to the method:
as §1
The antibody #A08 both as an IgG1 (bivalent) and as a SEEDbody (monovalent), was affinity matured using the yeast display technology described in (Rhiel et al. 2014) and performing light chain shuffling from immunized OmniRats and naïve human library followed by CDR-H3 parsimonious mutagenesis. Following several sorting rounds, yeast clones were picked, unique clones were reformatted as described in Examples 1.6 and 3.1. The binding affinities of the anti-FGFR1 molecules against human FGFR1b-IIIb) and human FGFR1b-IIIc) were measured by ELISA using a similar protocol as described in Example 1.9. The OD450 was plotted against the antibody concentration and GraphPad Prism software was used to calculate EC₅₀ values (see FIG. 10). […] The best results were obtained with mAb #A02 and #C01 showing an EC50 improvement in both IgG1 and SEEDbody formats.
A general note: An ELISA detects its analyte on a solid surface through an enzyme-linked reagent.

B1: mAb #A02 IgG1 (antibody, V domains shown)
VH: QVQLQESGPGLVKPSGTLSLTCAVSGGSISSNNWWSWVRQPPGKGLEWIGEIYHSGSTSYNPSLKSRVTISVDKSKNQFSLKLSSVTAADTAVYYCARATDWFDLWGQGTLVTVSS
VL: SYVLTQPPSVSVAPGQTARITCGGNNIGSESVHWYQQKPGQAPVLVVYDDSDRPSGIPERFSGSNSGNTATLTISRVEAGDEADYYCQVWDSTSDHRVFGGGTKLTVL
notes: constant regions not tied
Turning to B1, the binding result in experiment [1] was “binds”. The Kd (as a rule, the equilibrium constant for the complex coming apart) in experiment [2] came to 0.05 nM.

B2: #A07 IgG1 (antibody, V domains shown)
VH: QVQLQESGPGLVKPSGTLSLTCAVSGGSISSNNWWSWVRQPPGKGLEWIGEIYHSGSTSYNPSLKSRVTISVDKSKNQFSLKLSSVTAADTAVYYCARGTDWYDPWGQGTLVTVSS
VL: SYVLTQPPSVSVAPGQTARITCGGNNIGSESVHWYQQKPGQAPVLVVYDDSDRPSGIPERFSGSNSGNTATLTISRVEAGDEADYYCQVWDSTSDHRVFGGGTKLTVLG
notes: heavy constant region not tied
In experiment [2], B2 gave a Kd of 0.06 nM.

B3: mAb #C01 IgG1 (antibody, V domains shown)
VH: QVQLQESGPGLVKPSGTLSLTCAVSGGSISSNNWWSWVRQPPGKGLEWIGEIYHSGSTSYNPSLKSRVTISVDKSKNQFSLKLSSVTAADTAVYYCARATDWFDAWGQGTLVTVSS
VL: SYVLTQPPSVSVAPGQTARITCGGNNIGSESVHWYQQKPGQAPVLVVYDDSDRPSGIPERFSGSNSGNTATLTISRVEAGDEADYYCQVWDSTSDHRVFGGGTKLTVL
notes: constant regions not tied
B3: the binding result in experiment [1] is “binds”. Moreover, in experiment [2], the Kd was found to be 0.03 nM.

B4: #B10 IgG1 (antibody, V domains shown)
VH: QVQLQESGPGLVKPSGTLSLTCAVSGGSISSNNWWSWVRQPPGKGLEWIGEIYHSGSTSYNPSLKSRVTISVDKSKNQFSLKLSSVTAADTAVYYCARATDWYDPWGQGTLVTVSS
VL: SYVLTQPPSVSVAPGQTARITCGGNNIGSESVHWYQQKPGQAPVLVVYDDSDRPSGIPERFSGSNSGNTATLTISRVEAGDEADYYCQVWDSTSDHRVFGGGTKLTVLG
notes: as for B2
Regarding B4, binding in experiment [2] was put at a Kd of 0.02 nM.

B5: mAb #D01 IgG1 (antibody, V domains shown)
VH: QVQLQESGPGLVKPSGTLSLTCAVSGGSISSNNWWSWVRQPPGKGLEWIGEIYHSGSTSYNPSLKSRVTISVDKSKNQFSLKLSSVTAADTAVYYCARATDWFDHWGQGTLVTVSS
VL: SYVLTQPPSVSVAPGQTARITCGGNNIGSESVHWYQQKPGQAPVLVVYDDSDRPSGIPERFSGSNSGNTATLTISRVEAGDEADYYCQVWDSTSDHRVFGGGTKLTVLG
notes: as for B2
Take B5: the Kd in experiment [2] came to 0.03 nM.

B6: #D01 SEEDbody (monovalent) (antibody)
heavy: QVQLQESGPGLVKPSGTLSLTCAVSGGSISSNNWWSWVRQPPGKGLEWIGEIYHSGSTSYNPSLKSRVTISVDKSKNQFSLKLSSVTAADTAVYYCARATDWFDHWGQGTLVTVSSASTKGPSVFPLAPSSKSTSGGTAALGCLVKDYFPEPVTVSWNSGALTSGVHTFPAVLQSSGLYSLSSVVTVPSSSLGTQTYICNVNHKPSNTKVDKRVEPKSCDKTHTCPPCPAPELLGGPSVFLFPPKPKDTLMISRTPEVTCVVVDVSHEDPEVKFNWYVDGVEVHNAKTKPREEQYNSTYRVVSVLTVLHQDWLNGKEYKCKVSNKALPAPIEKTISKAKGQPFRPEVHLLPPSREEMTKNQVSLTCLARGFYPKDIAVEWESNGQPENNYKTTPSRQEPSQGTTTFAVTSKLTVDKSRWQQGNVFSCSVMHEALHNHYTQKTISLSPG
chain: EPKSSDKTHTCPPCPAPELLGGPSVFLFPPKPKDTLMISRTPEVTCVVVDVSHEDPEVKFNWYVDGVEVHNAKTKPREEQYNSTYRVVSVLTVLHQDWLNGKEYKCKVSNKALPAPIEKTISKAKGQPREPQVYTLPPPSEELALNELVTLTCLVKGFYPSDIAVEWLQGSQELPREKYLTWAPVLDSDGSFFLYSILRVAAEDWKKGDTFSCSVMHEALHNHYTQKSLDRSPG
light: SYVLTQPPSVSVAPGQTARITCGGNNIGSESVHWYQQKPGQAPVLVVYDDSDRPSGIPERFSGSNSGNTATLTISRVEAGDEADYYCQVWDSTSDHRVFGGGTKLTVLGQPKAAPSVTLFPPSSEELQANKATLVCLISDFYPGAVTVAWKADSSPVKAGVETTTPSKQSNNKYAASSYLSLTPEQWKSHKSYSCQVTHEGSTVEKTVAPTECS
notes: also called #D01-SEED(AG)
The molecule B6 gave a Kd in experiment [3] of 0.05 nM. In addition, in experiment [4], the binding result was “binds”.

B7: SEEDbody #A07 (monovalent) (antibody)
heavy: QVQLQESGPGLVKPSGTLSLTCAVSGGSISSNNWWSWVRQPPGKGLEWIGEIYHSGSTSYNPSLKSRVTISVDKSKNQFSLKLSSVTAADTAVYYCARGTDWYDPWGQGTLVTVSSASTKGPSVFPLAPSSKSTSGGTAALGCLVKDYFPEPVTVSWNSGALTSGVHTFPAVLQSSGLYSLSSVVTVPSSSLGTQTYICNVNHKPSNTKVDKRVEPKSCDKTHTCPPCPAPELLGGPSVFLFPPKPKDTLMISRTPEVTCVVVDVSHEDPEVKFNWYVDGVEVHNAKTKPREEQYNSTYRVVSVLTVLHQDWLNGKEYKCKVSNKALPAPIEKTISKAKGQPFRPEVHLLPPSREEMTKNQVSLTCLARGFYPKDIAVEWESNGQPENNYKTTPSRQEPSQGTTTFAVTSKLTVDKSRWQQGNVFSCSVMHEALHNHYTQKTISLSPG
chain: EPKSSDKTHTCPPCPAPELLGGPSVFLFPPKPKDTLMISRTPEVTCVVVDVSHEDPEVKFNWYVDGVEVHNAKTKPREEQYNSTYRVVSVLTVLHQDWLNGKEYKCKVSNKALPAPIEKTISKAKGQPREPQVYTLPPPSEELALNELVTLTCLVKGFYPSDIAVEWLQGSQELPREKYLTWAPVLDSDGSFFLYSILRVAAEDWKKGDTFSCSVMHEALHNHYTQKSLDRSPG
light: SYVLTQPPSVSVAPGQTARITCGGNNIGSESVHWYQQKPGQAPVLVVYDDSDRPSGIPERFSGSNSGNTATLTISRVEAGDEADYYCQVWDSTSDHRVFGGGTKLTVLGQPKAAPSVTLFPPSSEELQANKATLVCLISDFYPGAVTVAWKADSSPVKAGVETTTPSKQSNNKYAASSYLSLTPEQWKSHKSYSCQVTHEGSTVEKTVAPTECS
notes: also called #A07-SEED(AG)
Turning to B7, binding in experiment [3] was characterised by a dissociation constant (Kd) of 0.04 nM. Further, the binding result in experiment [4] is “binds”.
